Patent US20240270846A1 (published 2024)

Target: T1, CD3 epsilon homodimer protein (UniProt P07766 23-126)
T1 construct: also called CD3 (CD3 epsilon)
Experiment: SPR Biacore T200, antibody over immobilised CD3e homodimer;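 also: CD3 epsilon homodimer amine-coupled on a CM4 chip, run at 25 °C in HBS-EP+, Z = bound amount of each single-residue H chain variant over that of the parent antibody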

T1 sequence (P07766 23-126): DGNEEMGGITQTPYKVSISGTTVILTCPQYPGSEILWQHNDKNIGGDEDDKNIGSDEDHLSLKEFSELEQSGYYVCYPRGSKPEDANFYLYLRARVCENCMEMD

| Binder | ratio of amounts bound (Z=Y/X vs CE115HA000) |
| --- | --- |
| CE115HA000 A52aY one-arm antibody (antibody, human IgG1, kappa, L234A L235A, N297A, name in Kabat numbering, one-arm antibody) heavy: QVQLVESGGGVVQPGRSLRLSCAASGFTFSNAWMHWVRQAPGKGLEWVAQIKYKSNNYATYYAESVKGRFTISRDDSKNSLYLQMNSLKTEDTAVYYCRYVHYGAYYGVDAWGQGTTVTVSSASTKGPSVFPLAPSSKSTSGGTAALGCLVKDYFPEPVTVSWNSGALTSGVHTFPAVLQSSGLYSLSSVVTVPSSSLGTQTYICNVNHKPSNTKVDKKVEPKSCDKTHTCPPCPAPEAAGGPSVFLFPPKPKDTLMISRTPEVTCVVVDVSHEDPEVKFNWYVDGVEVHNAKTKPREEQYASTYRVVSVLTVLHQDWLNGKEYKCKVSNKALPAPIEKTISKAKGQPREPQVYTLPPSRCELTKNQVSLSCAVKGFYPSDIAVEWESNGQPENNYKTTPPVLDSDGSFFLVSKLTVDKSRWQQGNVFSCSVMHEALHNHYTQKSLSLSPDYKDDDDK EPKSSDKTHTCPPCPAPELLGGPSVFLFPPKPKDTLMISRTPEVTCVVVDVSHEDPEVKFNWYVDGVEVHNAKTKPREEQYNSTYRVVSVLTVLHQDWLNGKEYKCKVSNKALPAPIEKTISKAKGQPREPQVCTLPPSRDELTKNQVSLWCLVKGFYPSDIAVEWESNGQPENNYKTTPPVLDSDGSFFLYSKLTVDKSRWQQGNVFSCSVMHEALHNRYTQKSLSLSP light: DIVMTQSPLSLPVTPGEPASISCRSSQSLVHSNRNTYLHWYQQKPGQAPRLLIYKVSNRFSGVPDRFSGSGSGTDFTLKISRVEAEDVGVYYCGQGTQVPYTFGQGTKLEIKRTVAAPSVFIFPPSDEQLKSGTASVVCLLNNFYPREAKVQWKVDNALQSGNSQESVTEQDSKDSTYSLSSTLTLSKADYEKHKVYACEVTHQGLSSPVTKSFNRGEC | 0.31 |
| CE115HA000 A52aV one-arm antibody (antibody, human IgG1, kappa, L234A L235A, N297A, name in Kabat numbering, one-arm antibody) heavy: QVQLVESGGGVVQPGRSLRLSCAASGFTFSNAWMHWVRQAPGKGLEWVAQIKVKSNNYATYYAESVKGRFTISRDDSKNSLYLQMNSLKTEDTAVYYCRYVHYGAYYGVDAWGQGTTVTVSSASTKGPSVFPLAPSSKSTSGGTAALGCLVKDYFPEPVTVSWNSGALTSGVHTFPAVLQSSGLYSLSSVVTVPSSSLGTQTYICNVNHKPSNTKVDKKVEPKSCDKTHTCPPCPAPEAAGGPSVFLFPPKPKDTLMISRTPEVTCVVVDVSHEDPEVKFNWYVDGVEVHNAKTKPREEQYASTYRVVSVLTVLHQDWLNGKEYKCKVSNKALPAPIEKTISKAKGQPREPQVYTLPPSRCELTKNQVSLSCAVKGFYPSDIAVEWESNGQPENNYKTTPPVLDSDGSFFLVSKLTVDKSRWQQGNVFSCSVMHEALHNHYTQKSLSLSPDYKDDDDK EPKSSDKTHTCPPCPAPELLGGPSVFLFPPKPKDTLMISRTPEVTCVVVDVSHEDPEVKFNWYVDGVEVHNAKTKPREEQYNSTYRVVSVLTVLHQDWLNGKEYKCKVSNKALPAPIEKTISKAKGQPREPQVCTLPPSRDELTKNQVSLWCLVKGFYPSDIAVEWESNGQPENNYKTTPPVLDSDGSFFLYSKLTVDKSRWQQGNVFSCSVMHEALHNRYTQKSLSLSP light: DIVMTQSPLSLPVTPGEPASISCRSSQSLVHSNRNTYLHWYQQKPGQAPRLLIYKVSNRFSGVPDRFSGSGSGTDFTLKISRVEAEDVGVYYCGQGTQVPYTFGQGTKLEIKRTVAAPSVFIFPPSDEQLKSGTASVVCLLNNFYPREAKVQWKVDNALQSGNSQESVTEQDSKDSTYSLSSTLTLSKADYEKHKVYACEVTHQGLSSPVTKSFNRGEC | 0.52 |

Second part, the binder after the results:

| ratio of amounts bound (Z=Y/X vs CE115HA000) | Binder |
| --- | --- |
| 0.15 | CE115HA000 A52aP one-arm antibody (antibody, human IgG1, kappa, L234A L235A, N297A, name in Kabat numbering, one-arm antibody) heavy: QVQLVESGGGVVQPGRSLRLSCAASGFTFSNAWMHWVRQAPGKGLEWVAQIKPKSNNYATYYAESVKGRFTISRDDSKNSLYLQMNSLKTEDTAVYYCRYVHYGAYYGVDAWGQGTTVTVSSASTKGPSVFPLAPSSKSTSGGTAALGCLVKDYFPEPVTVSWNSGALTSGVHTFPAVLQSSGLYSLSSVVTVPSSSLGTQTYICNVNHKPSNTKVDKKVEPKSCDKTHTCPPCPAPEAAGGPSVFLFPPKPKDTLMISRTPEVTCVVVDVSHEDPEVKFNWYVDGVEVHNAKTKPREEQYASTYRVVSVLTVLHQDWLNGKEYKCKVSNKALPAPIEKTISKAKGQPREPQVYTLPPSRCELTKNQVSLSCAVKGFYPSDIAVEWESNGQPENNYKTTPPVLDSDGSFFLVSKLTVDKSRWQQGNVFSCSVMHEALHNHYTQKSLSLSPDYKDDDDK EPKSSDKTHTCPPCPAPELLGGPSVFLFPPKPKDTLMISRTPEVTCVVVDVSHEDPEVKFNWYVDGVEVHNAKTKPREEQYNSTYRVVSVLTVLHQDWLNGKEYKCKVSNKALPAPIEKTISKAKGQPREPQVCTLPPSRDELTKNQVSLWCLVKGFYPSDIAVEWESNGQPENNYKTTPPVLDSDGSFFLYSKLTVDKSRWQQGNVFSCSVMHEALHNRYTQKSLSLSP light: DIVMTQSPLSLPVTPGEPASISCRSSQSLVHSNRNTYLHWYQQKPGQAPRLLIYKVSNRFSGVPDRFSGSGSGTDFTLKISRVEAEDVGVYYCGQGTQVPYTFGQGTKLEIKRTVAAPSVFIFPPSDEQLKSGTASVVCLLNNFYPREAKVQWKVDNALQSGNSQESVTEQDSKDSTYSLSSTLTLSKADYEKHKVYACEVTHQGLSSPVTKSFNRGEC |
| 1.05 | CE115HA000 A52aS one-arm antibody (antibody, human IgG1, kappa, L234A L235A, N297A, name in Kabat numbering, one-arm antibody) heavy: QVQLVESGGGVVQPGRSLRLSCAASGFTFSNAWMHWVRQAPGKGLEWVAQIKSKSNNYATYYAESVKGRFTISRDDSKNSLYLQMNSLKTEDTAVYYCRYVHYGAYYGVDAWGQGTTVTVSSASTKGPSVFPLAPSSKSTSGGTAALGCLVKDYFPEPVTVSWNSGALTSGVHTFPAVLQSSGLYSLSSVVTVPSSSLGTQTYICNVNHKPSNTKVDKKVEPKSCDKTHTCPPCPAPEAAGGPSVFLFPPKPKDTLMISRTPEVTCVVVDVSHEDPEVKFNWYVDGVEVHNAKTKPREEQYASTYRVVSVLTVLHQDWLNGKEYKCKVSNKALPAPIEKTISKAKGQPREPQVYTLPPSRCELTKNQVSLSCAVKGFYPSDIAVEWESNGQPENNYKTTPPVLDSDGSFFLVSKLTVDKSRWQQGNVFSCSVMHEALHNHYTQKSLSLSPDYKDDDDK EPKSSDKTHTCPPCPAPELLGGPSVFLFPPKPKDTLMISRTPEVTCVVVDVSHEDPEVKFNWYVDGVEVHNAKTKPREEQYNSTYRVVSVLTVLHQDWLNGKEYKCKVSNKALPAPIEKTISKAKGQPREPQVCTLPPSRDELTKNQVSLWCLVKGFYPSDIAVEWESNGQPENNYKTTPPVLDSDGSFFLYSKLTVDKSRWQQGNVFSCSVMHEALHNRYTQKSLSLSP light: DIVMTQSPLSLPVTPGEPASISCRSSQSLVHSNRNTYLHWYQQKPGQAPRLLIYKVSNRFSGVPDRFSGSGSGTDFTLKISRVEAEDVGVYYCGQGTQVPYTFGQGTKLEIKRTVAAPSVFIFPPSDEQLKSGTASVVCLLNNFYPREAKVQWKVDNALQSGNSQESVTEQDSKDSTYSLSSTLTLSKADYEKHKVYACEVTHQGLSSPVTKSFNRGEC |
